According to patent US20160017341A1:

Biological target: B-lymphocyte antigen CD20 (UniProt P11836)
Experiment: direct binding of I-125 labeled antibody

Sequence of UniProt P11836 (P11836 whole entry): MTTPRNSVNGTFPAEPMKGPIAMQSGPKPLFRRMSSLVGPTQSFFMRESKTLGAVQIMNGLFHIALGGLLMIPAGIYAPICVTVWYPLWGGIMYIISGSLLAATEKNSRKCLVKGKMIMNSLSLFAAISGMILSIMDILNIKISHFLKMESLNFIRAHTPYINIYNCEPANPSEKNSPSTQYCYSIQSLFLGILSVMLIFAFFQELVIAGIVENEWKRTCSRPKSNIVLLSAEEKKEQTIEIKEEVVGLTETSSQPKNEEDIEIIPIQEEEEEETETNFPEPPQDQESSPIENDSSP

- apparent affinity constant (Kap): 3.5 nM
Substance: anti-CD20 monoclonal antibody 2B8
